Positions count from the first letter of the chain named. Names may count otherwise.

The source of these data is publication PMC6355003, “New interfaces on MiD51 for Drp1 recruitment and regulation” (PLoS ONE, 2019).

B1: Drp1 (dynamin-related protein Drp1), wild type (natural protein, UniProt O00429-4 1-699, looked up)
chain: MEALIPVINKLQDVFNTVGADIIQLPQIVVVGTQSSGKSSVLESLVGRDLLPRGTGIVTRRPLILQLVHVSQEDKRKTTGEENGVEAEEWGKFLHTKNKLYTDFDEIRQEIENETERISGNNKGVSPEPIHLKIFSPNVVNLTLVDLPGMTKVPVGDQPKDIELQIRELILRFISNPNSIILAVTAANTDMATSEALKISREVDPDGRRTLAVITKLDLMDAGTDAMDVLMGRVIPVKLGIIGVVNRSQLDINNKKSVTDSIRDEYAFLQKKYPSLANRNGTKYLARTLNRLLMHHIRDCLPELKTRINVLAAQYQSLLNSYGEPVDDKSATLLQLITKFATEYCNTIEGTAKYIETSELCGGARICYIFHETFGRTLESVDPLGGLNTIDILTAIRNATGPRPALFVPEVSFELLVKRQIKRLEEPSLRCVELVHEEMQRIIQHCSNYSTQELLRFPKLHDAIVEVVTCLLRKRLPVTNEMVHNLVAIELAYINTKHPDFADACGLMNNNIEEQRRNRLARELPSAVSRDKVASGGGGVGDGVQEPTTGNWRGMLKTSKAEELLAEEKSKPIPIMPASPQKGHAVNLLDVPVPVARKLSAREQRDCEVIERLIKSYFLIVRKNIQDSVPKAVMHFLVNHVKDTLQSELVGQLYKSSLLDDLLTESEDMAQRRKEAADMLKALQGASQIIAEIRETHLW
notes: Drp1, GenBank NM_005690; also called wild-type Drp1; source: E. coli Rosseta (DE3), purified (Ni-NTA, anion exchange, size-exclusion chromatography)
B2: GST-MiD51^133-463, wild type (domain or fragment, human, UniProt Q9NQG6-1 133-463, looked up)
chain: MSLQEKLLTYYRNRAAIPAGEQARAKQAAVDICAELRSFLRAKLPDMPLRDMYLSGSLYDDLQVVTADHIQLIVPLVLEQNLWSCIPGEDTIMNVPGFFLVRRENPEYFPRGSSYWDRCVVGGYLSPKTVADTFEKVVAGSINWPAIGSLLDYVIRPAPPPEALTLEVQYERDKHLFIDFLPSVTLGDTVLVAKPHRLAQYDNLWRLSLRPAETARLRALDQADSGCRSLCLKILKAICKSTPALGHLTASQLTNVILHLAQEEADWSPDMLADRFLQALRGLISYLEAGVLPSALNPKVNLFAELTPEEIDELGYTLYCSLSEPEVLLQT
notes: also called cytosolic domain of MiD51; source: E. coli BL21 (DE3), purified (Glutathione Sepharose, eluted with reduced glutathione)
B3: Drp1 S600D (natural protein, UniProt O00429-4 1-699, looked up)
chain: B1 chain with S600D
notes: Drp1, GenBank NM_005690; S600 is S637 in Drp1 isoform 1 (printed); also called phosphorylation site mutant (related to S637 in Drp1 isoform 1); source: E. coli Rosseta (DE3), purified (Ni-NTA, anion exchange, size-exclusion chromatography)
B4: Drp1 K38A (natural protein, UniProt O00429-4 1-699, looked up)
chain: B1 chain with K38A
notes: Drp1, GenBank NM_005690; also called K38A mutant of Drp1; dominant-negative GTPase mutation K38A; source: E. coli Rosseta (DE3), purified (Ni-NTA, anion exchange, size-exclusion chromatography)
B5: Drp1 S579D (natural protein, UniProt O00429-4 1-699, looked up)
chain: B1 chain with S579D
notes: Drp1, GenBank NM_005690; S579 is S616 in Drp1 isoform 1 (printed); also called phosphorylation site mutant (related to S616 in Drp1 isoform 1); source: E. coli Rosseta (DE3), purified (Ni-NTA, anion exchange, size-exclusion chromatography)
B6: MiD51^133-463, wild type (protein of the dimerization assays) (domain or fragment, human, UniProt Q9NQG6-1 133-463, looked up)
chain: B2 chain
notes: the His tag is called N-terminal in the methods and C-terminal in the results; source: E. coli BL21 (DE3), purified
B7: MiD51^133-463 supposed dimer surface mutant (SDM, R169A/R182A/D183A/Q212A/N213A) (domain or fragment, human, UniProt Q9NQG6-1 133-463, looked up)
chain: B2 chain with R37A, R50A, D51A, Q80A, N81A
notes: source: E. coli BL21 (DE3), purified
B8: MiD51^133-463 nucleotide binding site mutant (NBM, H201D/R342E/K368E) (domain or fragment, human, UniProt Q9NQG6-1 133-463, looked up)
chain: B2 chain with H69D, R210E, K236E
notes: as for B7
B9: MiD51^133-463 C165S (domain or fragment, human, UniProt Q9NQG6-1 133-463, looked up)
chain: B2 chain with C33S
notes: as for B7

Series [1] deals with the molecule itself. The series is described as follows: SEC; Superdex 200 PC 3.2/20; purified Drp1 and Drp1 mutants.
Another series has as its target T1, Drp1 G350D/AAAA (UniProt O00429-4 1-699, G350D | 401GPRP404→AAAA).
T1 construct: Drp1, GenBank NM_005690; source: E. coli Rosseta (DE3), purified (Ni-NTA, anion exchange, size-exclusion chromatography)
Briefly: pull-down; GST-fused MiD51^133-463 or mutants on Glutathione Sepharose 4B, equal molar Drp1, 3 h at 4°C; 20 mM HEPES pH 7.5, 150 mM NaCl, 1% Triton X-100, 1 mM MgCl2; SDS-PAGE, Coomassie staining; no nucleotide. The conditions noted are these: both partners purified.

A further series concerns the target T2, Drp1 G350D (UniProt O00429-4 1-699, G350D).
T2 construct: Drp1, GenBank NM_005690; source: E. coli Rosseta (DE3), purified (Ni-NTA, anion exchange, size-exclusion chromatography)
The description is as above. The conditions noted are these: both partners purified.

In the series “Drp1 S600D” the target is B3. Described as above. The conditions noted are these: both partners purified.
The series “Drp1 K38A” has as its target B4. The description is as above. The following applies: both partners purified.
For another series, the target named is T3, Drp1 G350D/A395D (UniProt O00429-4 1-699, G350D | A395D).
T3 construct: Drp1, GenBank NM_005690; source: E. coli Rosseta (DE3), purified (Ni-NTA, anion exchange, size-exclusion chromatography)
The series is described as above. The following applies: both partners purified.

For the next series, the target named is T4, Drp1 A395D/AAAA (UniProt O00429-4 1-699, A395D | 401GPRP404→AAAA).
T4 construct: Drp1, GenBank NM_005690; source: E. coli Rosseta (DE3), purified (Ni-NTA, anion exchange, size-exclusion chromatography)
The description is as above. The following applies: both partners purified.

The series “Drp1 S579D” concerns the target B5. The series is described as above. The conditions noted are these: both partners purified.
For a further series, the target named is T5, Drp1 A395D (UniProt O00429-4 1-699, A395D).
T5 construct: Drp1, GenBank NM_005690; source: E. coli Rosseta (DE3), purified (Ni-NTA, anion exchange, size-exclusion chromatography)
The series is described as above. The conditions noted are these: both partners purified.

Series [2] addresses T6, Drp1 AAAA mutant (401GPRP404→AAAA) (UniProt O00429-4 1-699, 401GPRP404→AAAA).
T6 construct: Drp1, GenBank NM_005690; source: E. coli Rosseta (DE3), purified (Ni-NTA, anion exchange, size-exclusion chromatography)
The series is described as follows: pull-down; GST-MiD51^133-463 on Glutathione Sepharose; MiD51 and Drp1 mixed first, then no nucleotide (apo) or 1 mM GTP, GMP-PNP, GDP-AlFx or GDP in assay and wash buffer; 20 mM HEPES pH 7.5, 150 mM NaCl, 1% Triton X-100, 1 mM MgCl2; Coomassie staining. The following applies: both partners purified.

The target of series [3] is B1. Described as above. The following applies: both partners purified.
Series [4] deals with the molecule itself. The series is described as follows: non-reducing SDS-PAGE; purified MiD51^133-463 in the air; time course, dimer quantified every twenty-four hours; wild type and mutants compared.

Regarding B1, in [1], the binding result was “binds”.
Turning to B2, the binding result with Drp1 G350D/AAAA, with Drp1 G350D, with Drp1 S600D, in the series with Drp1 K38A, with Drp1 G350D/A395D and with Drp1 A395D/AAAA was “binds” each time. Moreover, the binding result (with Drp1 S579D; with Drp1 A395D; in series [2]; in series [3]) was “binds” each time.
Turning to B3, the binding result in series [1] was “binds”.
On the same count and under the same terms, as for B4, the entry is “binds”.
For B5, the binding result in series [1] was “binds”.
B6: in series [4], the “stoichiometry N” value worked out at 2.
Regarding B7, the binding result in series [4] is reported as “binds”.
As to B8, in series [4], the binding result was “binds”.
As for B9, in series [4], the binding result is reported as “binds”.
